Test results from patent US6582899B1, “Methods for identifying agents that cause a lethal phenotype, and agents thereof” (Deltagen Proteomics, Inc., priority 2000, dated 2003).

What was measured:
[1] = test system: HuVECs (Human Umbilical Vein Endothelial Cells); assay: Cell viability of HuVECs after introduction of clone; assay type: cell-based; conditions: 16 hour time point
Excerpt: In addition to cycling these library sequences (obtained as described above) through an additional round of negative selections, 50 clones were taken from each of the Cycle 5, day five pools for sequence analysis. […] Both of the BID clones obtained from these negative selections encode N-terminal truncations of the native protein (BID Clone #1 encodes amino acids 33-195, BID Clone #2 encodes amino acids 76-195, See FIG. 9). BID clone #1 was reintroduced into fresh, naive HT29 cells and floater rates were compared with cells that had been mock infected or infected with the control vector, pVT324. […] In a similar experiment, BID clone #1 was introduced into HuVECs (Human Umbilical Vein Endothelial Cells, Clonetics/Biowhittaker) and cell viability was followed over the course of 16 hours. While control cells gave a background of 1% cell death at the 16 hour time point, 80% of the cells in the BID clone #1-infected culture died during the same period of time.

HT29 colon cancer cells = assay: HT29 floater assay (negative selection); assay type: cell-based; conditions: individual clone reintroduced into HT29 cells
Protocol: HT29 cells were tested for feasibility in the floater cell assay as follows. Briefly, six flasks were inoculated with 6.25×10^5 HT29 cells/flask on Day 0. On Day 1, after the cells had been allowed to adhere to the solid support, two of these flasks were infected with retroviral supernatant containing the retroviral vector pVT324, which includes a selectable drug resistant marker (e.g. neomycin), and which constitutively expresses a green fluorescent protein. Of the remaining four flasks, two were mock infected (i.e. exposed to all of the same reagents/conditions as flasks 1 and 2, minus the retrovirus, see “Example 3C”) and two were left undisturbed. On Day 2, this procedure was repeated (i.e. a double infection). On Day 3 (and subsequently on Day 5) one flask was selected from each of the three groups and processed by separating and counting the floater and adherent cell populations. In the case of the floater cell population, the media was collected, centrifuged at 200×g for 10 minutes, and resuspended in PBS prior to removing a sample for counting on a hemocytometer. For the adherent cell population, cells were first removed from the flask by trypsinization, centrifuged, and then processed for analysis in a fashion analogous to the floater cells. To determine the inherent background level of floater cells present in the population, the ratio of the number of floater cells to the total number of cells (adherent cells+floater cells) was analyzed on both the Day 3 and Day 5 flasks that had not been manipulated. These numbers were compared with the analogous numbers taken from infected and mock-infected flasks to determine whether the retrovirus or transfection procedures altered background floater rates. To determine the susceptibility of HT29 cells to retroviral infection, the fraction of cells that expressed GFP in pVT324 infected flasks was calculated using flow cytometry.
Twenty T175 flasks were seeded with 2.2×10^6 HT29 cells/flask in McCoy's 5A media (Gibco BRL) modified with 10% FBS. On Day 1, each flask was infected (4 μg/ml polybrene, 50% volume) with a retroviral supernatant containing a commercially obtained brain cDNA library (“Example Three” above). On Day 2 the media was changed. On Day 3 both the floater and adherent cell populations were collected (separately) from the twenty flasks. Approximately 652,500 floaters were isolated from a theoretical background of 4.2×10^7 adherents (1.5% floaters) and frozen down for future studies. […] Additional floater cells were then collected Day 5, where the collection and counting procedures were repeated and some 7.8×10^6 floaters and 7.6×10^8 adherents were counted (1.03% floaters). […] The floater populations of Days 3 and 5 were then combined and readied for a genomic DNA prep using a QIAamp kit (Qiagen) following standard procedures. Briefly, some 9×10^6 floater cells in PBS were lysed to release gDNA. This material was passed over a QIAamp column that was then washed several times to remove protein and RNA contaminants. Twenty-seven micrograms of genomic DNA were then eluted from the columns with dH2O and treated with RNAse A to eliminate any RNA contamination. This gDNA was then subjected to PCR procedures to amplify the library sequences encoded therein. […]

B1: BID clone #1: N-terminal truncation of BID (BH3 Interacting Domain Death Agonist), encodes amino acids 33-195 (protein, UniProt P55957 33-195, looked up, fragment)
chain: FRRELDALGHELPVLAPQWEGYDELQTDGNRSSHSRLGRIEADSESQEDIIRNIARHLAQVGDSMDRSIPPGLVNGLALQLRNTSRSEEDRNRDLATALEQLLQAYPRDMEKEKTMLVLALLLAKKVASHTPSLLRDVFHTTVNFINQNLRTYVRSLARNGMD
For B1, which cells that died [1] is on record?
The cells that died was 80%.

And the floater rate (HT29 colon cancer cells)?
Its floater rate is “roughly 18%”.
